Test [1] has as its target T1, human GPC3 N-terminal fragment, amino acids 25 to 358, with GPI link (human, UniProt P51654 25-358).
T1 construct: not shown: C-terminal glycophosphatidylinositol anchor (GPI link)
The experiment in a line: Western blot probed with 7H1, lysate of stably transfected cells.

In test [2] the target is T2, human GPC3 C-terminal truncation, amino acids 25 to 247, with GPI link (human, UniProt P51654 25-247).
T2 construct: not shown: C-terminal glycophosphatidylinositol anchor (GPI link)
The experiment in a line: Western blot probed with 7H1, lysate of transiently transfected cells. (In western blotting, separated proteins are transferred to a membrane and probed.)

In test [3] the target is T3, human GPC3 C-terminal truncation, amino acids 25 to 137, with GPI link (human, UniProt P51654 25-137).
T3 construct: not shown: C-terminal glycophosphatidylinositol anchor (GPI link)
The test is described as above.

Test [4] deals with T4, human GPC3 C-terminal fragment, amino acids 359 to 560, with GPI link (human, UniProt P51654 359-560).
T4 construct: also called huGPC(aa359-560); not shown: C-terminal glycophosphatidylinositol anchor (GPI link)
T4 sequence: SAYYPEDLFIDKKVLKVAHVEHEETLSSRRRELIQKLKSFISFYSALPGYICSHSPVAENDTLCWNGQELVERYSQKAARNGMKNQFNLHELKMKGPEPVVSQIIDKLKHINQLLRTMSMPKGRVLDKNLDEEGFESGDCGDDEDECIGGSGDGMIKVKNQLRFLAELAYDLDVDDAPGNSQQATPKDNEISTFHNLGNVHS
The experiment in a line: FACS on 293S cells expressing the C-terminal fragment of GPC3. The source says:
C-terminal truncation constructs of human GPC3 were made to further refine the epitopes for antibodies 7H1 and 4G7. […] The three C-terminal truncations each comprised the GPC N-terminal signal sequence (SS) and C-terminal glycophosphatidylinositol anchor (GPI link). […] See FIG. 7 (Santa Cruz Biotechnology antibody 1G12, which was raised to amino acids 511-580 of human GPC3, was used as a positive control for C-terminal fragment binding). Antibody 7H1 was reformatted as a chimeric antibody with human A118C cysteine-engineered IgG1 and Igκ constant regions (SEQ ID NOs: 42 and 43).

For the next test, the target named is T5, huGPC(aa359-559) (human, UniProt P51654 359-559).
T5 construct: Expressed on the surface of 293 cells
T5 sequence: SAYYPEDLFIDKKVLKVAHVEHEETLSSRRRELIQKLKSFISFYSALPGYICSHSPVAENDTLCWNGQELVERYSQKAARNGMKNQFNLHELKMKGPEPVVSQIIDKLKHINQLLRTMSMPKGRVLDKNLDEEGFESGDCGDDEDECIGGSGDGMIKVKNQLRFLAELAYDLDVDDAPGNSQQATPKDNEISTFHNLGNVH
As to the kind of experiment: FACS on 293 cells expressing the gD-tagged fragment. As to the method: (§1) C-terminal truncation constructs of huGPC(aa359-589) were made to further refine the epitopes for antibodies 4A11 and 15G1. […] The three C-terminal truncations each comprised an HSV N-terminal signal sequence (SS) and gD sequence (SEQ ID NO: 41) and C-terminal glycophosphatidylinositol anchor (GPI link). The huGPC truncation constructs were expressed on the surface of 293 cells and antibody binding was determined by FACS. An anti-gD was used as a positive control. Vector-transfected 293 cells were used as a negative control.

For a further test, the target named is T6, huGPC(aa359-509) (HSV; human).
T6 construct: Expressed on the surface of 293 cells; not shown: C-terminal glycophosphatidylinositol anchor (GPI link)
T6 chain: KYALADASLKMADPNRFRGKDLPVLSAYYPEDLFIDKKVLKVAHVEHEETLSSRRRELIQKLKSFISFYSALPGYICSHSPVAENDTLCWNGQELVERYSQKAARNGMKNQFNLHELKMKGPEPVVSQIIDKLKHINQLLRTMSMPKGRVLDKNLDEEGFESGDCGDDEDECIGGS
The description is as above. As to the method: as §1

Another test addresses T7, huGPC(aa359-470) (HSV; human).
T7 construct: Expressed on the surface of 293 cells; not shown: C-terminal glycophosphatidylinositol anchor (GPI link)
T7 chain: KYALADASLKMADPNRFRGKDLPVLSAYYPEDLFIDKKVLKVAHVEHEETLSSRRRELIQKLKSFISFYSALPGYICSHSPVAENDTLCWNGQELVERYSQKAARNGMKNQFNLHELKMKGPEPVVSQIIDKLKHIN
Described as above. As to the method: as §1

T1 sequence (P51654 25-358): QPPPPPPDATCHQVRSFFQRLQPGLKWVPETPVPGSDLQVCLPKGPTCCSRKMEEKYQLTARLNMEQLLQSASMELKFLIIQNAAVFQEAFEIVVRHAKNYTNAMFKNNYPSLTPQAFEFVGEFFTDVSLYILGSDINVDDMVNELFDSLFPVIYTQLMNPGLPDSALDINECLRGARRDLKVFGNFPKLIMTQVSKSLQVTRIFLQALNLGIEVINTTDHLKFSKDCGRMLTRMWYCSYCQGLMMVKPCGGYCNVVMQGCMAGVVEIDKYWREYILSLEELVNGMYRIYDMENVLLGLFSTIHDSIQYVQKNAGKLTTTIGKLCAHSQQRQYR
T2 sequence (P51654 25-247): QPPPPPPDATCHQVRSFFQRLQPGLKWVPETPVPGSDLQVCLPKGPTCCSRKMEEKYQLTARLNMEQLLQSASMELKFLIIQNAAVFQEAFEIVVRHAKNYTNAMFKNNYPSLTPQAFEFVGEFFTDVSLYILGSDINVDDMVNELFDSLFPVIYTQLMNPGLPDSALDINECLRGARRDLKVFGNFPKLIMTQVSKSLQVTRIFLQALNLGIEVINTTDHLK
T3 sequence (P51654 25-137): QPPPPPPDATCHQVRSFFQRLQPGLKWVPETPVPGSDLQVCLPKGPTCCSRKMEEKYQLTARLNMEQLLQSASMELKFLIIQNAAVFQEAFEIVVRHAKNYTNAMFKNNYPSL

B1: antibody 7H1 (antibody, V domains shown)
VH: QVQLQQSGPELVKPGASVKISCKASGYTFTDYYINWVKQKPGQGLEWIGWIYPGSGHTECNETFKGKATLTVDTSSSTAYMQLSSLTSEDTAVYFCTRGYYAPMGYFDYWGQGTTLTVSS
VL: DIQMTQSPSSLSASLGERVSLTCRASQEISGYLSWLQQKPDGTIKRLIYAASTLDSGVPKRFSGSRSGSDYSLTISGLESEDFADYYCLQYASYPYTFGGGTKLEIK
notes: Mouse monoclonal from Balb/c mice immunised with huGPC3 ECD-Flag
Consider B1, for which the binding result in test [1] is “binds”; in test [2] it was “binds”; in test [3], “binds”; in test [4], “no binding”.

B2: antibody 15G1 (antibody, human IgG1, kappa, V domains shown)
VH: EVQLLETGGGLVQPGGSRGLSCEGSGFTFSGFWMSWVRQTPGKTLEWIGDINSDGSSINYAPSIKDRFTIFRDNDKSILYLQMTNVRSEDTGTYFCVTTYGDYWGQGTTLTVSS
VL: DIVMTQSQKFMSTSVGDRVSVTCKASQNVGSHVGWYQQKSGQSPKALIYSASNRYIGVPDRFTGSGSGTDFTLTISNVQSEDLAEYFCQQYHIYPYTFGGGTRLEIKR
notes: also called 15G1 thio-HC A118C
For B2, the binding result in the test with huGPC(aa359-559), in the test with huGPC(aa359-509) and with huGPC(aa359-470) was “binds” throughout.

B3: antibody 4A11 (antibody, human IgG1, kappa)
heavy: not shown
light: DIVMTQSPSSMYASLGERVTITCKASQDINSYLSWFQQKPGKSPKTLIYRVNRLVDGVPSRFSGSGSGQDYSLTISSLEYEDVGIYYCLQYDEFPLTLGAGTKLELKRTVAAPSVFIFPPSDEQLKSGTASVVCLLNNFYPREAKVQWKVDNALQSGNSQESVTEQDSKDSTYSLSSTLTLSKADYEKHKVYACEVTHQGLSSPVTKSFNRGEC
notes: also called 4A11 thio-HC A118C
Turning to B3, the binding result in the test with huGPC(aa359-559) and with huGPC(aa359-509) was “binds” each time.

B4: antibody 4G7 (antibody, V domains shown)
VH: EVQLQQSGTVLARPGASVKMSCKASGYTFTSYWVHWVKQRPGQGLEWIGAIYPGNIDASYNQKFKGKAKLTAVTSTSTAYMELSSLTNEDSAVYYCSYDYDAWFVYWGQGTLVTVSA
VL: DIQMTQSHKFMSTSVGDRVSITCKASQDVSTAVAWYQQKPGQSPTLLIYSASYRYTGVPDRFTGSGSGTDFTFTISSVQAEDLAVYYCQQHYFTPRTFGGGTKLELK
Regarding B4, the binding result in test [4] was “no binding”.
